Laboratory results from publication PMC4909209.

Columns and labels:
[1] = target: ubiquitin tagged Ac-AChBP (Aplysia californica acetylcholine binding protein) (Aplysia californica); test: radioligand binding
[2] = target: de-tagged Ls-AChBP (Lymnaea stagnalis acetylcholine binding protein) (Lymnaea stagnalis) (UniProt P58154); test: radioligand binding

Substance	Ki [1]	Ki [2]
alpha-conotoxin LsIA (peptide)	11 nM	700 nM
alpha-conotoxin ImI (from UniProt P50983 5-17) (peptide)	3 nM	> 10000 nM
